According to patent US20230121511A1 (Chugai, published 2023):
Where a chain is given by its changes, count along the chain named.

Assays:
[1] = biological target: T1, DualAE05-SG1202k/SG1201hV11 (engineered Cys at position 191 (EU) of CH1, unpaired); assay: SPR (Biacore T200, 37 C), tool antibody captured on mouse anti-human Fc, anti-CH1 antibody injected
T1 construct: Heterodimeric antibody with S191C in only one Fab arm, so it exists only in the “unpaired cysteines” form; not shown: light chain constant region
Method: (§1) Biacore binding experiments were performed to characterize binding activities of the anti-CH1 antibodies prepared in Example 3.2 to DualAE05-SG1201, DualAE05-SG1202, DualAE05-SG1202k/SG1201hV11, IgG1_001 and IgG4_001 at 37 degrees C. using Biacore T200 instrument (GE Healthcare). Specifically, mouse anti-human Fc (GE Healthcare) was immobilized onto all flow cells of a CM4 sensor chip using amine coupling kit (GE Healthcare). Tool antibodies DualAE05-SG1201, DualAE05-SG1202, DualAE05-SG1202k/SG1201hV11, IgG1_001 and IgG4_001 were captured onto flow cell, and then anti-CH1 antibodies obtained from Example 3.2 was injected over all the flow cells. All antibodies were prepared in ACES pH 7.4 containing 20 mM ACES, 150 mM NaCl, 0.05% Tween 20, 0.005% NaN₃. Sensor surface was regenerated each cycle with 3M MgCl₂.

DualAE05-SG1202 = biological target: T2, DualAE05-SG1202 (Heavy chain pos 202 is the engineered Cys (S191C, EU). It can form an inter-Fab disulfide between the two heavy chains, so the preparation is a mixture of the paired and unpaired cysteine forms.); assay: as above
T2 construct: Corresponds to DualAE05-SG1201 with S191C in both Fab arms
Method: as §1

IgG4_001 = biological target: T3, IgG4_001; assay: as above
T3 construct: Tool antibody for screening; captured on mouse anti-human Fc; copies: 2 + 2
Method: as §1

DualAE05-SG1201 = biological target: T4, DualAE05-SG1201; assay: as above
T4 construct: Bivalent tool antibody with human IgG1 CH1 without S191C
Method: as §1

IgG1_001 = biological target: T5, IgG1_001; assay: as above
T5 construct: Tool antibody for screening; captured on mouse anti-human Fc; copies: 2 + 2
Method: as §1

Human CD3eg linker = biological target: T6, Human CD3eg linker (human); assay: SPR (Biacore 8K), antibody captured on anti-human Fc, recombinant human CD3 as analyte, 25 C, 1:1 model
T6 construct: Single-chain soluble construct expressed in FreeStyle293F cells; used as the SPR analyte; also called recombinant human CD3
T6 chain: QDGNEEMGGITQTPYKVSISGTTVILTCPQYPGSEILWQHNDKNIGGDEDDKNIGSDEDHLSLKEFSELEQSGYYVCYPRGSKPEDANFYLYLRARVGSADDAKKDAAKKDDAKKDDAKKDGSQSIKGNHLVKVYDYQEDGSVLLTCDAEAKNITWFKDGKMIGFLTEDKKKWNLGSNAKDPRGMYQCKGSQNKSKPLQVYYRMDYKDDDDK
Method: Binding affinity of Dual-Fab antibodies (Dual-Ig) to human CD3 were assessed at 25 degrees C. using Biacore 8K instrument (GE Healthcare). Anti-human Fc (GE Healthcare) was immobilized onto all flow cells of a CM4 sensor chip using amine coupling kit (GE Healthcare). Antibodies were captured onto the anti-Fc sensor surfaces, then recombinant human CD3 or CD137 was injected over the flow cell. All antibodies and analytes were prepared in ACES pH 7.4 containing 20 mM ACES, 150 mM NaCl, 0.05% Tween 20, 0.005% NaN₃. Sensor surface was regenerated each cycle with 3M MgCl₂. […] CD137 binding affinity assay was conducted in same condition except assay temperature was set at 37 degrees C.

T5 sequence (VH, as listed by the source limits assumed, chain 1 of 2): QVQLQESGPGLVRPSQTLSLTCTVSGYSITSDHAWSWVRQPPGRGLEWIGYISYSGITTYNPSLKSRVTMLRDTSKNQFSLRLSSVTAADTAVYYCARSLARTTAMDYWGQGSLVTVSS
T5 sequence (VL, as listed by the source limits assumed, chain 2 of 2): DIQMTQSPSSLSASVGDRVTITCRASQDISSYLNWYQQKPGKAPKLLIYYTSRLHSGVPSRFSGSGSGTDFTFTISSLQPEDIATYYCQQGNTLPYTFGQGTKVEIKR
T3 sequence (VH, as listed by the source limits assumed): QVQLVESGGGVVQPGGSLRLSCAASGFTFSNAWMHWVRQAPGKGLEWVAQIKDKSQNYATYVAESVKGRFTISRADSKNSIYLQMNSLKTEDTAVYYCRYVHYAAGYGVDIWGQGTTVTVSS

B1: FAB0060hh (antibody, V domains shown)
VH: QSLEESGGRLVTPGTPLTLTCTASGFSLSTYWMNWVRQAPGKGLEWIGTINIDGSAAYASWAKGRFTISRTSTTVDLKAASPTTEDTATYFCATYGGDIWGPGTLVTVSS
VL: DVVMTQTPASVSEPVGGTVTIKCQASQSISTALAWYQQKPGQPPKLLIYGASTLESGVPSRFKGSGSGTEFTLTISDLECADAATYYCQCTYYGNNYGNAFGGGTKVEIK
notes: Conformation-specific anti-CH1 antibody from immunised rabbits
Relative binding activity to tool antibody (normalized against RU binding value for IgG1_001) [1]: 0.957

B2: FAB0059ff (antibody, V domains shown)
VH: B1 VH with T30S, I50V, A56T, A57D, T94R, T107I, S110L
VL: B1 VL with N95S, N96S
notes: as for B1
Relative binding activity to tool antibody (normalized against RU binding value for IgG1_001) [1]: 0.929

B3: FAB0133hh (antibody, V domains shown)
VH: B1 VH with W32Y, N51T, S55T, A57Y, T94R, G96D
VL: B1 VL with Y49H, T53I, A83V, N95I, N96S
notes: as for B1
Relative binding activity to tool antibody (normalized against RU binding value for IgG1_001) [1]: 0.922
Relative binding activity to tool antibody (normalized against RU binding value for IgG1_001) (DualAE05-SG1202): 0.206
Relative binding activity to tool antibody (normalized against RU binding value for IgG1_001) (IgG4_001): -0.017
Relative binding activity to tool antibody (normalized against RU binding value for IgG1_001) (DualAE05-SG1201): 1.02
Relative binding activity to tool antibody (normalized against RU binding value for IgG1_001) (IgG1_001): 1

B4: H1573L0581 (antibody, V domains shown)
VH: QVQLVESGGGLVQPGRSLRLSCAASGFKFSNVWFHWVRQAPGKGLEWVAQIKDYYNAYAAYYAPSVKGRFTISRDDSKNSIYLQMNSLKTEDTAVYYCHYVHYASASTLLPAFGVDAWGQGTTVTVSS
VL: DIVMTQSPLSLPVTPGEPASISCQPSQEVVHMNRNTYLHWYQQKPGQAPRLLIYKVSNRFPGVPDRFSGSGSGTDFTLKISRVEAEDVGVYYCAQGTSHPFTFGQGTKLEIK
notes: Dual-Fab antibody (Dual-Ig) captured via anti-human Fc; also called DualAE07; dBBDu183H1573/dBBDu072L0581
Kd (Human CD3eg linker): 156 nM

B5: FAB0135hh (antibody, V domains shown)
VH: QSLEESGGRLVTPGTPLTLTCTASGFSLSSYYMSWVRQAPGEGLEYIGWISSDGSTYYASWAKGRFTISRTSTTVDLKITSPTTEDTATYFCARDYAASNIWGPGTLVTVSS
VL: DVVMTQTPASVSEPVGGTVTIKCQASENIGNALAWYQQKPGQRPKLLIYGASNLESGVPSRFKGSRSGTEYTLTISDLECDDAATYYCQSTYYSSSYSNPFGGGTKVEIK
notes: as for B1
Relative binding activity to tool antibody (normalized against RU binding value for IgG1_001) [1]: 0.96
